Source: patent US20140275490A1

Columns and labels:
human IL-23R (human) = human IL-23R (human) (UniProt Q5VWK5); assay: cell-based or functional assay
[1] = target: human IL-23R-mouse Fc fusion protein (human; mouse) (UniProt Q5VWK5); assay: antigen ELISA, human IL-23R-Fc immobilized, HRP anti-human IgG, chemiluminescence
[2] = target: monkey IL-23R-mouse Fc fusion protein (monkey; mouse); assay: antigen ELISA, monkey IL-23R-Fc immobilized, HRP anti-human IgG, chemiluminescence

Sequence of human IL-23R (human) (Q5VWK5 24-629 L310P limits assumed): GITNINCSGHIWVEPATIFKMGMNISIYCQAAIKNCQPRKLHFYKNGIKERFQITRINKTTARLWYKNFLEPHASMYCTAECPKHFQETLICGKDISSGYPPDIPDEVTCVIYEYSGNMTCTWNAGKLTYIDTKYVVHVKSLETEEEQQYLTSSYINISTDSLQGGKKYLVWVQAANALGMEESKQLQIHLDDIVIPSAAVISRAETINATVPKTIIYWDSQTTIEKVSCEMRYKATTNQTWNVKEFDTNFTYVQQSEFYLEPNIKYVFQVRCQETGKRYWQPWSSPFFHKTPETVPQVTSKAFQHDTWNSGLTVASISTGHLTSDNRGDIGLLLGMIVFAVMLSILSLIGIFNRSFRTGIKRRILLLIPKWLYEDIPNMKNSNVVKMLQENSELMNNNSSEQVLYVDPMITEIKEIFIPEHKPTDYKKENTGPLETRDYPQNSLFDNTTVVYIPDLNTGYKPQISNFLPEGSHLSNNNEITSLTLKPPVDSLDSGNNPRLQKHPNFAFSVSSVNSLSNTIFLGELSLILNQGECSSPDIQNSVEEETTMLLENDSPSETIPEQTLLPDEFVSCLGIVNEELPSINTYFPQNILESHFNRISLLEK
Sequence of human IL-23R-mouse Fc fusion protein (human; mouse) (Q5VWK5 24-353 L310P): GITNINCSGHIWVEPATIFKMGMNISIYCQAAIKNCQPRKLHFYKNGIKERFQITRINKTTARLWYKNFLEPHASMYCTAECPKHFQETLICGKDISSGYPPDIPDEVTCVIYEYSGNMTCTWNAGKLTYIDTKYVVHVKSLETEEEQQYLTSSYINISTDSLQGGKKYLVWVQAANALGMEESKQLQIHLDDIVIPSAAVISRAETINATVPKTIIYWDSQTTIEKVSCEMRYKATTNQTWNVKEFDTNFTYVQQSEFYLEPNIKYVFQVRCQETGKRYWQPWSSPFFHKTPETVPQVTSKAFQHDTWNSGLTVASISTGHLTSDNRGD

- IC50, IL-23-stimulated STAT3 phosphorylation in CD4 lymphocytes of human whole blood (human IL-23R (human)): 0.01 µg/mL
- IC50, inhibition of human IL-23-inducible Kit-225 cell proliferation (human IL-23R (human)): 0.055 µg/mL
- EC50 [1]: 0.0485 µg/mL
- EC50 [2]: > 10 µg/mL
B1: hum20D7 (antibody, from another filing, V domains shown)
VH: QVQLVQSGAEVKKPGASVKVSCKASGYTFTNYAMNWVRQAPGQGLEWMGWINTYTGEPTYSDDFKGRVTFTLDTSTSTAYMELRSLRSDDTAVYYCARGGGYDEDYFDYWGQGTLVTVSS
VL: DIVMTQSPLSLPVTPGEPASISCKSSQSLFNTINQKTYLAWYLQKPGQSPQLLIYFASTRESGVPDRFSGSGSGTDFTLKISRVEAEDVGVYYCQQHYDTPWTFGQGTKVEIKR
